IC50 and Kd data for two molecules are collected here from PMC4955526 (2017).

B1: Cerberus (protein)
chain: TRHQDGRQNQSSLSPVLLPRNQRELPTGNHEEAEEKPDLFVAVPHLVATSPAGEGQRQREKMLSGFGRFWKKPEREMHPSRDSDSEPFPPGTQSLIQPIDGMKMEKSPLREEAKKFWHHFMFRKTPASQGVILPIKSHEVHWETCRTVPFSQTITHEGCEKVVVQNNLCFGKCGSVHFPGAAQHSHTSASHCLPAKFTTMHLPLNCTELSSVIKVVMLVEECQCKVKTEHEDGHILHAGSQDSFIPGVSA
B2: BMP-4 (protein)
chain: SPKHHSQRARKKNKNCRRHSLYVDFSDVGWNDWIVAPPGYQAFYCHGDCPFPLADHLNSTNHAIVQTLVNSVNSSIPKACCVPTELSAISMLYLDEYDKVVLKNYQEMVVEGCGCR

Where two headings read alike, the source gives them in different places.

Experiment [1] addresses B2. Kind of experiment: SPR competition vs ActRIIA-Fc.
Experiment [2] concerns the target B2. Kind of experiment: SPR competition vs BMPRII-Fc.
In experiment [3] the target is B2. Put plainly: SPR competition vs ALK3-Fc.
Experiment [4] concerns the target B2. Kind of experiment: SPR competition vs ActRIIA-Fc.
Experiment [5] addresses B2. Kind of experiment: SPR competition vs ActRIIA-Fc.
The target in experiment [6] is B2. Put plainly: SPR competition vs Cerberus-Fc.
Experiment [7] has as its target B2. Kind of experiment: SPR competition vs ALK3-Fc.
The target in experiment [8] is B2. Kind of experiment: SPR competition vs Cerberus-Fc.
In experiment [9] the target is B2. Kind of experiment: SPR competition vs Cerberus-Fc.
The target in experiment [10] is B2. Kind of experiment: SPR competition vs Cerberus-Fc.
Experiment [11] concerns the target B2. Kind of experiment: SPR competition vs ALK3-Fc.
The target in experiment [12] is B2. Put plainly: SPR competition vs BMPRII-Fc.
Experiment [13] deals with B2. Put plainly: SPR competition vs ActRIIA-Fc.
In experiment [14] the target is B2. Kind of experiment: SPR competition vs ALK3-Fc.
The target of experiment [15] is B2. Kind of experiment: SPR competition vs BMPRII-Fc.
The target in experiment [16] is B2. Put plainly: SPR competition vs BMPRII-Fc.
For experiment [17], the target named is B2. Kind of experiment: SPR competition vs ActRIIA-Fc.
The next experiment deals with T1, ALK3-Fc ECD (Homo sapiens, UniProt P36894).
T1 chain: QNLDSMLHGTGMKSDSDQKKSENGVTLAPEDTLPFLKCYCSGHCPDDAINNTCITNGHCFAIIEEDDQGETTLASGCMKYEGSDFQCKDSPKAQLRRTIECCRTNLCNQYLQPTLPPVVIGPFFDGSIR
Kind of experiment: SPR.

Experiment [18] deals with T2, ActRIIA-Fc ECD (Homo sapiens, UniProt P27037). Put plainly: SPR. Background: SPR reads the build-up and loss of mass on a sensor chip optically.
T2 sequence (P27037 20-135): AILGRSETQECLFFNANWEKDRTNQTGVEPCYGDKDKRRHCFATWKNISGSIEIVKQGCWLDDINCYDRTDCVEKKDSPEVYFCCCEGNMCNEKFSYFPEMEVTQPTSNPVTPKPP
The next experiment deals with T3, BMPRII-Fc ECD (Homo sapiens, UniProt Q13873).
T3 chain: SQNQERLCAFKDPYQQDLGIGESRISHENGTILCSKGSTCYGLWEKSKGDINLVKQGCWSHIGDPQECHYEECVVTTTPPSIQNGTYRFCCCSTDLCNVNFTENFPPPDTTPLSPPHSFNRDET
Kind of experiment: SPR.

The target in experiment [19] is T4, Cerberus-Fc (Homo sapiens, UniProt O95813).
T4 chain: B1 chain
Kind of experiment: SPR.

The target of experiment [20] is T2, ActRIIA-Fc ECD. Kind of experiment: SPR. This is another data set of the same source.
The target of experiment [21] is T4, Cerberus-Fc. Kind of experiment: SPR.

With B1, the IC50 (in general, the midpoint of a concentration-inhibition curve) in the experiment with BMP-4 [1] was found to be 239 nM; with BMP-4 [2], 132 nM; with BMP-4 [3], 303 nM; with BMP-4 [4] it was 56 nM; with BMP-4 [5] it was 266 nM; with BMP-4 [6], 56.7 nM. Moreover, the IC50 with BMP-4 [7] was 245 nM; in the experiment with BMP-4 [8], 99.7 nM; with BMP-4 [9] it was 57.6 nM; with BMP-4 [10], 46.6 nM; with BMP-4 [11], 134 nM; in the experiment with BMP-4 [12], 153 nM. Further, the IC50 with BMP-4 [13] stood at 58 nM; with BMP-4 [14], 289 nM; in the experiment with BMP-4 [15], 166 nM; with BMP-4 [16], 138 nM; with BMP-4 [17], 305 nM.

As for B2, the Kd (usually the free concentration of one partner at which half of the binding sites on the other are occupied at equilibrium, for simple one-to-one binding) is 0.193 nM with ALK3-Fc ECD; 3.26 nM in the experiment with ActRIIA-Fc ECD [18]; 8.13 nM in the experiment with BMPRII-Fc ECD; 2.24 nM with Cerberus-Fc [19]; 2.85 nM in the experiment with ActRIIA-Fc ECD [20]; 2.73 nM in the experiment with Cerberus-Fc [21].
